Assay results: IntAct's records for PubMed 30285739

B1: WW domain binding protein VOPP1 (Homo sapiens), Q96AW1 (parent)
chain: MRRQPAKVAALLLGLLLECTEAKKHCWYFEGLYPTYYICRSYEDCCGSRCCVRALSIQRLWYFWFLLMMGVLFCCGAGFFIRRRMYPPPLIEEPAFNVSYTRQPPNPGPGAQQPGPPYYTDPGGPGMNPVGNSMAMAFQVPPNSPQGSVACPPPPAYCNTPPPPYEQVVKAK
partner: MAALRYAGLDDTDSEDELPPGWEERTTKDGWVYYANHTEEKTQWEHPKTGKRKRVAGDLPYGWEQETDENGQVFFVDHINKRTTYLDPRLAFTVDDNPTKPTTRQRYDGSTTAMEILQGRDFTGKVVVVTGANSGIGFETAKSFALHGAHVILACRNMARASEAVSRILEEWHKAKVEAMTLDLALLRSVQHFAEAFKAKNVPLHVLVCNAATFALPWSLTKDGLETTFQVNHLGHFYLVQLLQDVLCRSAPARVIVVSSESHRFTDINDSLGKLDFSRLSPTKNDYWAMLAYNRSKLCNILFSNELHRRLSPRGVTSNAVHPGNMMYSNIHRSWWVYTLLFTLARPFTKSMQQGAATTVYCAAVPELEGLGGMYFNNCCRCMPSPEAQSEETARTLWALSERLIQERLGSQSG
B2: WW domain-containing oxidoreductase (Homo sapiens), Q9NZC7 (parent)
chain: B1 partner
partner: B1 chain

Variants of: B1
Details: with wwox_human WWOX, Q9NZC7
In the case of Y165A, the “effect of a mutation on the interaction” value is reported as “decreasing interaction strength”.
In the case of Y157A, the “effect of a mutation on the interaction” value is reported as “decreasing interaction strength”.
With Y119A the “effect of a mutation on the interaction” value was “with no effect”.

Variants of: B1
Details: with wwox_human WWOX
With Y165A the “effect of a mutation on the interaction” value was “disrupting interaction strength”.

Variants of: B2
Details: with vopp1_human VOPP1, Q96AW1
For Y33R, the “effect of a mutation on the interaction” value was “disrupting interaction strength”.
